This is an account of results in patent US20240398942A1 (CHIA TAI TIANQING PHARMACEUTICAL GROUP, published 2024).

Numbering of substitutions follows the chain as printed.

One assay concerns the target T1, human CD40-Fc protein (human, biotinylated (sites not given) in the capture ELISA and the benchmark blocking ELISA; not biotinylated in the ligand blocking ELISA).
T1 construct: also called biotinylated human CD40-Fc
As to the kind of experiment: capture ELISA: antibody captured on coated goat anti-human IgG F(ab')2, biotinylated human CD40-Fc 1.15 nM, streptavidin-HRP, OD(450-630). As to the method: The plate was washed once with a washing buffer (PBS+0.05% v/v of Tween-20, PBST) and then blocked with 200 μL/well blocking buffer (PBST containing 5% w/v of skim milk) for 2 h at 37° C. The plate was washed 4 times, and the anti-CD40 antibody of the present application, BM1, BM2, and a negative control hIgG (human immunoglobulin for intravenous injection (pH 4), Hualan Biological Engineering Inc.) serially 5-fold diluted from 66.7 nM in a PBST containing 2.5% w/v of skim milk was added at 100 μL per well. The plate was incubated for 40 min at 37° C. and washed 4 times. A biotinylated human CD40-Fc protein (amino acid residues 21-193 of SEQ ID NO: 30 linked to the N terminus of amino acid residues 99-330 of SEQ ID NO: 28, dissolved in PBST containing 2.5% w/v of skim milk at a concentration of 1.15 nM) was added at 100 μL/well to a 96-well plate coated with the anti-CD40 antibody. The plate was incubated at 37° C. for 40 min and washed 4 times. An HRP-labeled streptavidin (diluted at 1:10000 in PBST, Jackson Immuno Research, Cat. No. 016-030-084) was added at 100 μL/well, and the plate was incubated at 37° C. for another 40 min. After the last wash, 100 μL/well of ELISA substrate TMB (Innoreagents, Cat. No. TMB-S-002) was added and the plate was incubated at room temperature. After 3-10 min, the reaction was stopped by adding 1 M H₂SO₄ at 50 µL/well, and the absorbance of each well was read on a microplate reader using the dual wavelength mode (TMB detection wavelength: 450 nm, reference wavelength: 630 nm). Curves of OD(450-630) values vs. antibody concentration were plotted. Data were analyzed using Graphpad Prism software, and EC₅₀ values were obtained.
(An ELISA detects its analyte on a solid surface through an enzyme-linked reagent.)

The target in assay [1] is T2, recombinant human CD40-his (Acro biosystems, Cat. No. CD0-H5228) (human, UniProt P25942 21-193).
T2 construct: Bought protein; also called human CD40-his protein; not shown: His tag
T2 sequence (P25942 21-193 limits assumed): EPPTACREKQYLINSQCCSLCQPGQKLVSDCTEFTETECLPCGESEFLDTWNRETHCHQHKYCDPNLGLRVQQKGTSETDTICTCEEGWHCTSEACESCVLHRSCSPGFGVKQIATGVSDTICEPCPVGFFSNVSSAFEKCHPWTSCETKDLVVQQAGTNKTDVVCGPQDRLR
The assay can be described thus: SPR (Biacore T200), antibody captured on anti-human IgG chip, CD40-his as analyte, 1:1 fit. The source says:
(§1) Briefly, a goat anti-human IgG (GE Healthcare, Cat. No. BR100839, human antibody capture kit) was covalently linked to a CM5 chip (GE Healthcare, Cat. No. BR100530, carboxymethylated dextran-coated chip) via the primary amine group using a standard amine coupling kit supplied by Biacore (GE Healthcare, Pittsburgh, PA, USA). Unreacted portions on the biosensor surface were blocked with ethanolamine. Then, the anti-CD40 antibody of the present application and two benchmark antibodies (BM1 (dacetuzumab, Genentech Inc., also referred to CD40-BM1, prepared in-house; the heavy and light chain amino acid sequences are set forth in SEQ ID NOs: 40 and 41, respectively) and BM2 (selicrelumab, Abgenix Inc., also referred to CD40-BM2, prepared in-house; the heavy and light chain amino acid sequences are set forth in SEQ ID NOS: 42 and 43, respectively)) at a concentration of 66.67 nM were directed through the chip at a flow rate of 10 μL/min. Then, serially diluted recombinant human CD40-his (Acro biosystems, Cat. No. CD0-H5228, serially 2-fold diluted from 80 nM in HBS-EP⁺ buffer (supplied by Biacore)) or cynomolgus monkey CD40-his protein (Acro biosystems, Cat. No. CD0-C52H6, serially 2-fold diluted from 80 nM in HBS-EP⁺ buffer (supplied by Biacore)) was directed through the chip at a flow rate of 30 μL/min. The antigen-antibody binding kinetics was tracked for 2 min and the dissociation kinetics was tracked for 10 min. The association and dissociation curves were fitted to a 1:1 Langmuir binding model using BIAcore evaluation software. KD, Kₐ, and Kd values were determined.

Assay [2] addresses T3, cynomolgus monkey CD40-his protein (Acro biosystems, Cat. No. CD0-C52H6) (cynomolgus monkey, UniProt G7PG38 21-193).
T3 construct: Bought protein; not shown: His tag
Described as above.
Description: as §1

For assay [3], the target named is T2, recombinant human CD40-his (Acro …). The assay can be described thus: BLI (Octet RED 96), antibody captured on AHC sensor, human CD40-his as analyte, 1:1 fit. The method, then: (§2) After six days of culture in a shake flask, the cell supernatant containing the humanized antibodies huC1H1-V1 to huC1H1-V4 was harvested and the binding affinity of the antibodies to human CD40 was determined on an Octet system (Fortebio, Octet RED 96) according to the following procedures. Briefly, an anti-human IgG Fc capture (AHC) biosensor (from ForteBio) was pre-soaked in a 10 mM glycine solution (pH 1.5) for 3 s, and then soaked in a running buffer (PBST containing 0.5% w/v of BSA) for 3 s. The pre-soaking and soaking procedures were repeated 3 times. Then, the sensor was soaked in the cell supernatant containing the humanized anti-CD40 antibody, chimeric antibody C1H1 dissolved in HBS-EP⁺ buffer at a concentration of 5 μg/mL, or the benchmark dissolved in HBS-EP⁺ buffer at a concentration of 5 μg/mL for 120 s, and then soaked in the running buffer for 5 min. The new baseline was run in the running buffer for 180 s. The sensor was then soaked for 120 s in human CD40-his protein (Acro biosystems, Cat. No. CD0-H5228) 2-fold serially diluted from 40 nM in the running buffer and for 10 min in the running buffer […]. Finally, the sensor was pre-soaked in a 10 mM glycine solution (pH 1.5) for 3 s, and then soaked in the running buffer for 3 s. The pre-soaking and soaking procedures were repeated 3 times. The association and dissociation curves were fitted to a 1:1 Langmuir binding model using ForteBio Data Analysis 8.1.

Assay [4] has the same target. As to the kind of experiment: BLI (Octet RED 96), antibody captured from cell supernatant on AHC sensor, human CD40-his as analyte, 1:1 fit. The method, then:
as §2
For orientation: In BLI a coated tip is dipped into the sample, and binding shifts an interference pattern.

T1 sequence (chain, as listed by the source limits assumed): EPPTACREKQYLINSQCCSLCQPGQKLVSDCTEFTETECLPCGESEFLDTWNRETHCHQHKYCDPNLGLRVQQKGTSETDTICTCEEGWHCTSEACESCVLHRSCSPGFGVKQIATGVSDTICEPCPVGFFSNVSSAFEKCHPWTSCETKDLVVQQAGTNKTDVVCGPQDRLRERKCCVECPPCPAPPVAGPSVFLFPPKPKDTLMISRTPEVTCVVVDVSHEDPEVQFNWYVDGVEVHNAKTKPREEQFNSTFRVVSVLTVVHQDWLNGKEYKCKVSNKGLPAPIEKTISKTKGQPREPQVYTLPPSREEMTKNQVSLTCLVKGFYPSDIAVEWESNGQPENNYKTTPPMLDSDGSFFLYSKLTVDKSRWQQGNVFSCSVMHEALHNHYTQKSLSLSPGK

B1: BM1 (dacetuzumab) (antibody, human IgG1, kappa, V domains shown)
VH: EVQLVESGGGLVQPGGSLRLSCAASGYSFTGYYIHWVRQAPGKGLEWVARVIPNAGGTSYNQKFKGRFTLSVDNSKNTAYLQMNSLRAEDTAVYYCAREGIYWWGQGTLVTVSS
VL: DIQMTQSPSSLSASVGDRVTITCRSSQSLVHSNGNTFLHWYQQKPGKAPKLLIYTVSNRFSGVPSRFSGSGSGTDFTLTISSLQPEDFATYFCSQTTHVPWTFGQGTKVEIKR
notes: Benchmark antibody, prepared in-house; also called CD40-BM1; benchmark
As a reminder, the EC50 is the concentration at which the effect is half-maximal. By Kd is commonly meant the constant that tells how readily two partners part at equilibrium. The koff is a measure of how fast the partners let go of each other. In general, kon refers to the second-order rate constant of association. In the case of B1, in the assay with human CD40-Fc protein, the EC50 came out at 0.628 nM. Also, in assay [1], the dissociation constant Kd came out at 8.87 nM, the koff came out at 0.00656 s⁻¹ and the kon turned out to be 739000 M⁻¹ s⁻¹. In assay [2], this molecule came in with a Kd of 9.89 nM, a koff of 0.00616 s⁻¹ and a kon of 623000 M⁻¹ s⁻¹.

B2: BM2 (selicrelumab) (antibody, human IgG2, kappa, V domains shown)
VH: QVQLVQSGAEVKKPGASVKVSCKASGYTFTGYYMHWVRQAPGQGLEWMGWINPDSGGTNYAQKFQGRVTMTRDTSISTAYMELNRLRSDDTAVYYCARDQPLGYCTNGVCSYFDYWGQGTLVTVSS
VL: DIQMTQSPSSVSASVGDRVTITCRASQGIYSWLAWYQQKPGKAPNLLIYTASTLQSGVPSRFSGSGSGTDFTLTISSLQPEDFATYYCQQANIFPLTFGGGTKVEIKR
notes: Benchmark antibody, prepared in-house; also called CD40-BM2; benchmark
B2: in assay [3], the Kd is 1.12 nM, the koff is 0.000979 s⁻¹ and the kon stood at 874000 M⁻¹ s⁻¹. Besides, the EC50 with human CD40-Fc protein came to 1.36 nM.

B3: humanized antibody huC1H1-V1 (antibody, human IgG2, kappa, V domains shown)
VH: EVQLVESGGGLVKPGGSLRLSCAASGFTFSNYGISWVRQAPGKGLEWVASISSGGDNTYYPDNVKGRFTISRDNAKNSLYLQMNSLRAEDTAVYYCARAGEKAMDYWGQGTLVTVSS
VL: EIVLTQSPATLSLSPGERATLSCRASQTINNNLHWYQQKPGQAPRLLIKYASQSISGIPARFSGSGSGTDFTLTISSLEPEDFAVYFCQQFSSWPLTFGGGTKVEIKR
notes: Human IgG2 / kappa
For the molecule B3, in assay [4], the Kd came out at 0.904 nM, the koff came to 0.00128 s⁻¹ and the kon came out at 1.41e+06 M⁻¹ s⁻¹.

B4: humanized antibody huC1H1-V2 (antibody, human IgG2, kappa, V domains shown)
VH: B3 VH with A49S
VL: B3 VL
notes: Human IgG2 / kappa
As to B4, in assay [4], the Kd was found to be 0.596 nM, the koff is 0.000981 s⁻¹ and the kon came to 1.65e+06 M⁻¹ s⁻¹.

B5: chimeric antibody C1H1 (antibody, human IgG1, kappa, V domains shown)
VH: EVKLVESGGGLVKPGASLKLSCAASGFTFSNYGISWVRQTSDKRLEWVASISSGGDNTYYPDNVKGRFTISRENAKNTLYLQMSSLKSEDTALYYCARAGEKAMDYWGQGTSVTVSS
VL: DIVLTQSPVTLSVTPGDSVSLSCRASQTINNNLHWYQQKSHESPRLLIKYASQSISGIPSRFSGSGSGTDFTLSINSVETEDFGIYFCQQFSSWPLTFGAGTKLELKR
notes: also called Chimeric C1H1
For B5, in assay [3], the dissociation constant Kd amounted to 0.633 nM, the koff came out at 0.000929 s⁻¹ and the association rate constant (kon) came out at 1.47e+06 M⁻¹ s⁻¹. For the same molecule, in assay [1], the Kd worked out at 0.861 nM, the koff was 0.00157 s⁻¹ and the on-rate constant (kon) was 1.82e+06 M⁻¹ s⁻¹. In assay [2], this molecule registered a Kd of 1.06 nM, a koff of 0.00148 s⁻¹ and a kon of 1.39e+06 M⁻¹ s⁻¹.
